We go through three molecules from patent US20200071404A1 (Astellas, published 2020).

Assay [1] concerns the target T1, human CD73 expressed on cells (cancer cell line NCI-H1373 endogenously expressing human CD73); human T cell … (human, UniProt P21589 27-549).
T1 sequence (looked up): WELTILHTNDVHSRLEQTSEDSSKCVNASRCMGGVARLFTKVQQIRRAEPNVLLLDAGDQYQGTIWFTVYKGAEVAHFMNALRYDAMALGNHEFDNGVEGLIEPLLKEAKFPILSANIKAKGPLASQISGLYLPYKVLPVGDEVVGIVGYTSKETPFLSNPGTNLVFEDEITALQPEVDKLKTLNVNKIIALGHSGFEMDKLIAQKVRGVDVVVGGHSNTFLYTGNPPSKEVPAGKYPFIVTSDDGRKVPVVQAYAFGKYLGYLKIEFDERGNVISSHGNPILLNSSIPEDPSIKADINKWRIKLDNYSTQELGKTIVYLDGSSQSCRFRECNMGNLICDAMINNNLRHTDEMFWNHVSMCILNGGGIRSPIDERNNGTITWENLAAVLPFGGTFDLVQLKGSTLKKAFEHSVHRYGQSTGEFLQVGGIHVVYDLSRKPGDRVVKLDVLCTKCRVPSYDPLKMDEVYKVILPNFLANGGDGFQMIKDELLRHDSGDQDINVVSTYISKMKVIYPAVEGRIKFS
The assay is described as follows: cell-based or functional assay.

In assay [2] the target is T1, human CD73 expressed on cells (cancer …). The experiment in a line: cell-based or functional assay. The source holds these as a separate data set.
The target in assay [3] is T2, human CD73 protein (R&D Systems, Inc., 5795) (human, UniProt P21589 27-549).
T2 sequence (looked up): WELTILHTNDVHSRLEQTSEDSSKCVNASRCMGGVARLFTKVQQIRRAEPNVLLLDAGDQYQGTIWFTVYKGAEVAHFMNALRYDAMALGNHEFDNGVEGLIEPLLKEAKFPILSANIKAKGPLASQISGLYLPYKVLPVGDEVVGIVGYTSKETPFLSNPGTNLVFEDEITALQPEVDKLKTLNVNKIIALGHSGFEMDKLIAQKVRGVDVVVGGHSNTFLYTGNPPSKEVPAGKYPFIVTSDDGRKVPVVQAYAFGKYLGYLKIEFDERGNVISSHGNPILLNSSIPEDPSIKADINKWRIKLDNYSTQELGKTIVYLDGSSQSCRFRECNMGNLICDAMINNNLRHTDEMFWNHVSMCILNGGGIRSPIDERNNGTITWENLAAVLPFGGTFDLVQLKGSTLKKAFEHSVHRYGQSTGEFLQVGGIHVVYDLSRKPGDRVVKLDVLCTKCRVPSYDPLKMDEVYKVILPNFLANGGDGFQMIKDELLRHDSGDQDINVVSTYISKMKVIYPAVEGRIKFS
The assay is described as follows: cell-based or functional assay.

The target in assay [4] is T3, human CD73 protein (BPS Bioscience Inc., 71184) (human, UniProt P21589 27-547, limits assumed).
T3 sequence (looked up): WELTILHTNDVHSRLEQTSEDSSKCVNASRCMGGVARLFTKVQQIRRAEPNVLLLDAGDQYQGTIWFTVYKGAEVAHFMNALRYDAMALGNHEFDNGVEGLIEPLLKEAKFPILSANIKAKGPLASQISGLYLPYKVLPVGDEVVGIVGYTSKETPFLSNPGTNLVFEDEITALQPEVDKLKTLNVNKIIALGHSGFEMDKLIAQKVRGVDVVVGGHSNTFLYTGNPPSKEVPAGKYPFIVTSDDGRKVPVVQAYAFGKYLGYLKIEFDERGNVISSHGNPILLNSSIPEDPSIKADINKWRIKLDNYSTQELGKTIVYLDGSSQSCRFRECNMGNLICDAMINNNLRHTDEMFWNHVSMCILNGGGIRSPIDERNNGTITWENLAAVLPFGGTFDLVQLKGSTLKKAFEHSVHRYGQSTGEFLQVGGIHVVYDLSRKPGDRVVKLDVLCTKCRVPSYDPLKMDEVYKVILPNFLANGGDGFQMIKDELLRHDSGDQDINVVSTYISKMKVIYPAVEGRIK
The experiment in a line: ELISA, human CD73 protein immobilised on plate, first run. How it is done: (§1) In order to evaluate the binding activity of CDS-1, CDS-3, CDS-6, CDS-7, and CDS-8 acquired in Example 1 to human CD73, the ELISA was performed using a human CD73 protein. The human CD73 protein (BPS Bioscience Inc., 71184) diluted in PBS (Life Technologies, Inc.) to have a concentration of 4 μg/mL was added to a MaxiSorp 384-well plate Clear (Thermo Fisher Scientific Inc.) by an amount of 20 μL/well, and then immobilized overnight at a temperature of 4° C. The next day, the resultant was washed with a wash solution (0.05% Tween-20 containing Tris-buffered saline (TBS)) once, Blocking One (Nacalai tesque, Inc.) was added thereto in an amount of 100 μL/well, and the resultant was blocked at room temperature for 30 minutes. The resultant was washed with the wash solution once again, and the purified CDS-1, the purified CDS-3, the purified CDS-6, the purified CDS-7, or the purified CDS-8 prepared in Example 1 was added thereto by an amount of 20 μL/well, respectively. […] The values of absorbance at 450 nm and 540 nm were measured by Infinite M200 PRO (TECAN Inc.), and EC₅₀ values of CDS-1, CDS-3, CDS-6, CDS-7, and CDS-8 with respect to the human CD73 protein were calculated. In calculation of the EC₅₀ values, the ordinate represents a difference in the measurement values of absorbance at 450 nm and 540 nm, and the abscissa represents an antibody concentration value.

The target in assay [5] is T3, human CD73 protein (BPS Bioscience …). The experiment in a line: ELISA, human CD73 protein immobilised on plate, second run. The procedure: as §1, with “respectively. These purified antibodies were diluted using a reaction buffer obtained by mixing the same amount of PBS and Blocking One, and dilution was performed in 12 steps from 10 μg/mL to 56 pg/mL. The resultant was reacted at room temperature for 1 hour, and then washed three times with a wash solution. 20 μL/well of a human IgG-heavy and light chain cross-adsorbed antibody (Bethyl Laboratories Inc., A80-219P) which had been diluted 4000-fold with a reaction buffer was added thereto, and the resultant was reacted at room temperature for 1 hour. The resultant was washed with a wash solution three times, and 20 μL/well of TMB+substrate-chromogen (DAKO Ltd., 51599) was added thereto.” for “respectively.”

B1: anti-human CD73 antibody CDS-1 (antibody, human IgG1, kappa, L234A L235A)
heavy: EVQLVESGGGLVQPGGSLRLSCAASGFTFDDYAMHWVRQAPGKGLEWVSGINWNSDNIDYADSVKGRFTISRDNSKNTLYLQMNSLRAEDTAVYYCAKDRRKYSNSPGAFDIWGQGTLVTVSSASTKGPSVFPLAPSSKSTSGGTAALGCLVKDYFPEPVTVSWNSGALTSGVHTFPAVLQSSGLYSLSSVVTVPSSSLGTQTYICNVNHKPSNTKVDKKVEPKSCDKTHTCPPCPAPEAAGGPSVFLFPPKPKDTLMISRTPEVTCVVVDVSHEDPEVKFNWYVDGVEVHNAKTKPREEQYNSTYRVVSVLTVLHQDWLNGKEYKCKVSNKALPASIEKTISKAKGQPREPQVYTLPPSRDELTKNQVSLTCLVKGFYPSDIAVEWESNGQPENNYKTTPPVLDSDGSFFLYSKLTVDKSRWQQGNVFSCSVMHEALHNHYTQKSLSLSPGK
light: DIQMTQSPSSLSASVGDRVTITCRASQIIGPWLAWYQQKPGKAPKLLIYRASSLESGVPSRFSGSGSGTDFTLTISSLQPEDFATYYCQQYNSYSPWTFGQGTKVEIKRTVAAPSVFIFPPSDEQLKSGTASVVCLLNNFYPREAKVQWKVDNALQSGNSQESVTEQDSKDSTYSLSSTLTLSKADYEKHKVYACEVTHQGLSSPVTKSFNRGEC
notes: also called purified CDS-1
As for B1, in assay [1], the “EC50 (ng/mL), IFNγ; recovery of AMP-dependently suppressed human T cell functions” value turned out to be 5.8 ng/mL and the “EC50 (ng/mL), Proliferation of T cells; recovery of AMP-dependently suppressed human T cell functions” value stood at 23.2 ng/mL. Moreover, in assay [2], the “EC50 (ng/mL), First; inhibition of enzymatic activity of human CD73 in NCI-H1373 cells (adenosine from AMP, LC/MS)” value was 785 ng/mL and the “EC50 (ng/mL), Second; inhibition of enzymatic activity of human CD73 in NCI-H1373 cells (adenosine from AMP, LC/MS)” value stood at 579 ng/mL. For the same molecule, in assay [3], the “EC50 (ng/mL), First; inhibition of enzymatic activity of human CD73 protein (adenosine from AMP, LC/MS)” value stood at 16.8 ng/mL and the “EC50 (ng/mL), Second; inhibition of enzymatic activity of human CD73 protein (adenosine from AMP, LC/MS)” value was 9.2 ng/mL. The same molecule came in with a half-maximal effective concentration (EC50) in assay [4] of 0.0039 µg/mL. Also, in assay [5], a half-maximal response (EC50) required 0.0088 µg/mL.

B2: CDS-3, fused form in which human IL-7 is fused to the C terminal side of the heavy chain of CDS-1 (antibody, human IgG1, kappa, L234A L235A)
heavy: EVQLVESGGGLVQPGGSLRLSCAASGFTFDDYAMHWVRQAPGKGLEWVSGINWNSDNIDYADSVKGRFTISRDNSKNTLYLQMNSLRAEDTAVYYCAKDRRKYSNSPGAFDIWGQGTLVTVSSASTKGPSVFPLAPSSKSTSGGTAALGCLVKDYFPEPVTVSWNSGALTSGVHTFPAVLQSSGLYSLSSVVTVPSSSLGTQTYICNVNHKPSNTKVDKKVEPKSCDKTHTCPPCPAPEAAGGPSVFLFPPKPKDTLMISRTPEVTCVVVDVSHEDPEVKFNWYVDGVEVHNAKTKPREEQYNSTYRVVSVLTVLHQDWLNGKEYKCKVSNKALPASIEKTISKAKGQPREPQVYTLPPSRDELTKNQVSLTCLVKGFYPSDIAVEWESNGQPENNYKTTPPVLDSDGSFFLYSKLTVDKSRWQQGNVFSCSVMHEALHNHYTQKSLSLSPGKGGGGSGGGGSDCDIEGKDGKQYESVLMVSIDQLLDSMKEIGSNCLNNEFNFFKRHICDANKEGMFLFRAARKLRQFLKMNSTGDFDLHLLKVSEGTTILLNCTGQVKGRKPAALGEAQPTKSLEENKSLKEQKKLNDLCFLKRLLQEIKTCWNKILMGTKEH
light: DIQMTQSPSSLSASVGDRVTITCRASQIIGPWLAWYQQKPGKAPKLLIYRASSLESGVPSRFSGSGSGTDFTLTISSLQPEDFATYYCQQYNSYSPWTFGQGTKVEIKRTVAAPSVFIFPPSDEQLKSGTASVVCLLNNFYPREAKVQWKVDNALQSGNSQESVTEQDSKDSTYSLSSTLTLSKADYEKHKVYACEVTHQGLSSPVTKSFNRGEC
notes: also called purified CDS-3
With B2, the “EC50 (ng/mL), Second; inhibition of enzymatic activity of human CD73 in NCI-H1373 cells (adenosine from AMP, LC/MS)” value in assay [2] was 455 ng/mL. For the same molecule, in assay [3], the “EC50 (ng/mL), Second; inhibition of enzymatic activity of human CD73 protein (adenosine from AMP, LC/MS)” value is 19.4 ng/mL. In assay [5], this molecule yielded an EC50 of 0.0209 µg/mL.

B3: CDS-6, fused form in which human IL-7 variant is fused to the C terminal side of the heavy chain of CDS-1 (antibody, human IgG1, kappa, L234A L235A)
heavy: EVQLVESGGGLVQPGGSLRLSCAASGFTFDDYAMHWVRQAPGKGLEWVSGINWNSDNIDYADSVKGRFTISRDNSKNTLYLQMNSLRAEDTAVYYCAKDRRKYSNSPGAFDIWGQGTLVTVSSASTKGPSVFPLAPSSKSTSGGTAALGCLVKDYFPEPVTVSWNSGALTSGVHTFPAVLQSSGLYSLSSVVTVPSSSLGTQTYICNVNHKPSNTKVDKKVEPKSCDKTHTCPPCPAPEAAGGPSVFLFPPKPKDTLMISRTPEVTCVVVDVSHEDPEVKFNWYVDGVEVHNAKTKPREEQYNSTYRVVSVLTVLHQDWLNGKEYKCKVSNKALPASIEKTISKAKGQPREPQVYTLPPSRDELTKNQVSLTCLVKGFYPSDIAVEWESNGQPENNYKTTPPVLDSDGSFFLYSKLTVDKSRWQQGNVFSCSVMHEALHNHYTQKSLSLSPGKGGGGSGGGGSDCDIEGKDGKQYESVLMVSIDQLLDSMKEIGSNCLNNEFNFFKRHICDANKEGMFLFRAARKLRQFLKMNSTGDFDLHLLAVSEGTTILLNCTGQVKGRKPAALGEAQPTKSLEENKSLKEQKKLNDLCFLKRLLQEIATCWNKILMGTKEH
light: DIQMTQSPSSLSASVGDRVTITCRASQIIGPWLAWYQQKPGKAPKLLIYRASSLESGVPSRFSGSGSGTDFTLTISSLQPEDFATYYCQQYNSYSPWTFGQGTKVEIKRTVAAPSVFIFPPSDEQLKSGTASVVCLLNNFYPREAKVQWKVDNALQSGNSQESVTEQDSKDSTYSLSSTLTLSKADYEKHKVYACEVTHQGLSSPVTKSFNRGEC
notes: also called purified CDS-6
On to B3, for which the “EC50 (ng/mL), Second; inhibition of enzymatic activity of human CD73 in NCI-H1373 cells (adenosine from AMP, LC/MS)” value in assay [2] was found to be 678 ng/mL. Moreover, the “EC50 (ng/mL), Second; inhibition of enzymatic activity of human CD73 protein (adenosine from AMP, LC/MS)” value in assay [3] is 20.4 ng/mL. In assay [5], this molecule had an EC50 of 0.0196 µg/mL.
